From patent US20200399385A1 (Bristol-Myers Squibb, published 2020)
Several values for one entry are separate records, joined by “and”; a condition that tells them apart may be missing. Equal values may be shown once.

T1: human OX40 on cells (human, UniProt P43489 29-277)
T1 sequence: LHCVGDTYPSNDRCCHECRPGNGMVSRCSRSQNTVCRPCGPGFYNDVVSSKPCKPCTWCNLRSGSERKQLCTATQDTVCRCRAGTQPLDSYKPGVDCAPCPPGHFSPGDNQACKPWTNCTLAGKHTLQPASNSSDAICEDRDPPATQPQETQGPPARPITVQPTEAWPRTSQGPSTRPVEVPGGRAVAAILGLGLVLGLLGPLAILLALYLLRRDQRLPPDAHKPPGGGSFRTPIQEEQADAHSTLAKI

T2: cynomolgus OX40 on cells (cynomolgus, UniProt P43489 29-277 (human entry))
T2 construct: also called cynoOX40-CHO
T2 chain: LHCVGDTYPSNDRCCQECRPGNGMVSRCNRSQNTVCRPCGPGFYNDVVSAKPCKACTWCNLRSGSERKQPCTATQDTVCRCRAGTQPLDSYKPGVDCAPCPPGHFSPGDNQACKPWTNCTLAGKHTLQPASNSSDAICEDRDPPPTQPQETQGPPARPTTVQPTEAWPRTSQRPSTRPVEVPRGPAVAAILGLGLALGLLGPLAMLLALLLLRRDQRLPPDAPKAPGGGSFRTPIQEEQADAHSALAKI

T3: his-tagged soluble human OX40 (huOX40-6xhis) (human, UniProt P43489 29-214)
T3 construct: made in-house; also called Human-OX40-6XHIS; hOX40; not shown: hexahistidine tag
T3 sequence: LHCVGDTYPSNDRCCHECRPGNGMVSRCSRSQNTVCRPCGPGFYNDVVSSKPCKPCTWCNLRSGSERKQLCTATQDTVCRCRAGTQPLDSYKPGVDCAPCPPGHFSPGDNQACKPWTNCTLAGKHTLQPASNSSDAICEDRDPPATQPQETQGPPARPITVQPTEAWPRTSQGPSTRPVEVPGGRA


Columns and labels:
human OX40 on cells [1] = target: T1, human OX40 on cells; test: cell-based or functional assay
human OX40 on cells [2] = target: T1, human OX40 on cells; test: FACS competition on HT1080-hOX40 cells against APC-OX40.1 (FL2 MFI); the table gives no unit, axis 'Ab conc nM'
Procedure: (§1) This experiment was performed to test the cross-blocking properties of various anti-OX40 antibodies to assess binding specificities. […] Cells were washed and if necessary further incubated in the presence of streptavidin-APC conjugate under the same conditions. After the final wash, cells were analyzed on a FACSCanto flow cytometer (BD Bioscience, San Jose, Calif.). Mean fluorescence intensity (MFI) signal was proportional to bound conjugated antibody.

human OX40 on cells [3] = target: T1, human OX40 on cells; test: FACS, activated human T cells; mean ± SD, n=3
Procedure: (§2) Cells were activated for several days before the binding assay in order to induce OX40 expression. Briefly, PBMCs were cultured for three or four days with magnetic beads coated with anti-human CD3 plus anti-human CD28, in the presence of recombinant human IL-2. On the day of the assay, the beads were removed and the cells stained with a titration of each anti-OX40 antibody. Bound antibodies were detected with a fluorescently conjugated anti-human IgG polyclonal secondary antibody, and the cells were co-stained for CD4 and CD25 to detect activated CD4 T cells. The fluorescence intensity of the staining was measured using a FACSCanto II flow cytometer (Becton Dickinson). The geometric mean fluorescence intensity (GMFI) or median fluorescence intensity (MedFI) of anti-OX40 antibody staining was calculated for the CD4+CD25+ population (FACSDiva software). EC₅₀s for antibody binding were calculated using GraphPad Prism software.

human OX40 on cells [4] = target: T1, human OX40 on cells; test: FACS, blocking of OX40L-His (0.2 µg/mL) binding to hOX40-293 cells
Procedure: Briefly, 293 cells stably transfected with human OX40 were first pre-incubated with varying concentrations of anti-OX40 antibodies. […] The fluorescence intensity of the staining was measured using a FACSCanto II flow cytometer (Becton Dickinson).

cynomolgus OX40 on cells [5] = target: T2, cynomolgus OX40 on cells; test: FACS, activated cyno T cells; mean ± SD, n=4
Procedure: (§3) Briefly, cells were activated for several days before the binding assay in order to induce OX40 expression. Total leukocytes were isolated from cynomolgus macaque peripheral blood by lysis of red blood cells using an ammonium chloride buffer. The leukocytes were then cultured for four to five days with in flasks pre-coated with anti-human CD3 plus anti-human CD28 antibodies that cross-react with cynomolgus macaque, in the presence of recombinant human IL-2, in order to expand and activate T cells. On the day of the assay, the cells were harvested and stained with a titration of each anti-OX40 antibody. Bound antibodies were detected with a fluorescently conjugated anti-human IgG polyclonal secondary antibody, and the cells were co-stained for CD4 and CD25 to detect activated CD4 T cells. The fluorescence intensity of the staining was measured using a FACSCanto II flow cytometer (Becton Dickinson). The geometric mean fluorescence intensity (GMFI) or median fluorescence intensity (MedFI) of anti-OX40 antibody staining was calculated for the CD4+CD25+ population (FACSDiva software). Dose-response curves were generated and EC50s for antibody binding were calculated using GraphPad Prism software.

human OX40 on cells [6] = target: T1, human OX40 on cells; test: FACS competition on hOX40-293 cells against biotin-OX40.4 (spike biotOX.4 @ 0.4 ug/mL, streptavidin-APC); partial inhibition, FL4-MFI falls from about 12700 to about 6000; the table gives no unit, axis in nM
Procedure: as §1

[7] = target: T3, his-tagged soluble human OX40 …; test: SPR, mAb captured on anti-human CH1, OX40-6XHIS analyte, 1:1 fit
Procedure: The affinity of several OX40 antibodies for soluble human OX40 was tested by SPR analysis. […] Human-OX40-6XHIS antigen in either a single concentration of 400 nM or a 1:2 serial dilution from 400 nM was used. Experiments were carried out on BIACORE® T200 or BIACORE® 3000 SPR instruments. Data was fit to a 1:1 model.

human OX40 on cells [8] = target: T1, human OX40 on cells; test: FACS competition on hOX40-293 cells against biotin-OX40.5 (spike biotOX.5 @ 0.4 ug/mL, streptavidin-APC); FL4-MFI falls from about 8700 to about 2900; the table gives no unit, axis in nM
Procedure: as §1

cynomolgus OX40 on cells [9] = target: T2, cynomolgus OX40 on cells; test: FACS, activated cyno CD4 T cells
Procedure: as §3
The same experiment was performed with anti-OX40 antibodies with variable region substitutions.

cynomolgus OX40 on cells [10] = target: T2, cynomolgus OX40 on cells; test: FACS, activated cyno T cells; mean ± SD, n=3
Procedure: as §3

human OX40 on cells [11] = target: T1, human OX40 on cells; test: FACS, activated human T cells; mean ± SD, n=5
human OX40 on cells [12] = target: T1, human OX40 on cells; test: cell-based or functional assay; remark: listed apart in the source
human OX40 on cells [13] = target: T1, human OX40 on cells; test: FACS competition on hOX40-293 cells against biotin-OX40.5 (spike biotOX.5 @ 0.4 ug/mL, streptavidin-APC); FL4-MFI falls from about 8700 to about 3800; the table gives no unit, axis in nM
Procedure: as §1

human OX40 on cells [14] = target: T1, human OX40 on cells; test: FACS competition on hOX40-293 cells against biotin-OX40.4 (spike biotOX.4 @ 0.4 ug/mL, streptavidin-APC); partial inhibition, FL4-MFI falls from about 12700 to about 8800 at about 130 nM; the table gives no unit, axis in nM
Procedure: as §1

human OX40 on cells [15] = target: T1, human OX40 on cells; test: immunohistochemistry, HT1080/huOX40 cells
Source text: Fresh, frozen and/or OCT-embedded human tissues were purchased from multiple commercial tissue networks/vendors (Asterand Inc. Detroit, Mich.; Cooperative Human Tissue Network, Philadelphia, Pa.; ProteoGenex Inc, Culver City, Calif.). […] A nonspecific fluoresceinated human IgG1 was used as isotype control antibody. HT1080 cells stably expressing human OX40 (HT1080/huOX40) and hyperplasic human tonsil tissue sections were used as positive control cells and tissues. […] Stained slides were evaluated under a light microscope.

human OX40 on cells [16] = target: T1, human OX40 on cells; test: FACS, activated human T cells; mean ± SD, n=2
Procedure: as §2

cynomolgus OX40 on cells [17] = target: T2, cynomolgus OX40 on cells; test: FACS, activated cyno T cells; mean ± SD, n=4; mean ± SD of n=4 experiments (Table 8), not the single experiment of FIGS. 12A and 12B
Procedure: as §3

human OX40 on cells [18] = target: T1, human OX40 on cells; test: FACS competition on hOX40-293 cells: unlabeled antibody first, then PE-labeled L106 (2.5 ug/mL per the text)
Procedure: Briefly, 293 cells stably transfected with human OX40 were first incubated with varying concentrations of unlabeled anti-OX40 antibodies. […] The fluorescence intensity of the staining was measured using a FACSCanto II flow cytometer (Becton Dickinson).

| Binder | Proliferation EC50, CD4 T cells + CHO-CD3-CD32A (human OX40 on cells [1]) [pM] | EC50 (human OX40 on cells [3]) [pM] | EC50 (human OX40 on cells [4]) [pM] | EC50 (cynomolgus OX40 on cells [5]) [pM] | Kd [7] [pM] | koff [7] [s⁻¹] | kon [7] [M⁻¹ s⁻¹] | EC50 (cynomolgus OX40 on cells [9]) | other results |
| --- | --- | --- | --- | --- | --- | --- | --- | --- | --- |
| 20B3 (antibody, V domains shown, also called 20B3.G12.A2; 20B3.G2) VH: EVQLVESGGGLVQPGGSLRLSCAASGFTFSSYDMHWVRQTTGKGLEWVSVIGTAGDTYYPGSVKGRFTISRENAKNSLYLQMNSLRAGDTAVYYCARGGMGNYFDYWGQGTLVTVSS VL: EIVLTQSPATLSLSPGERATLSCRASQSVSSYLAWYQQKPGQAPRLLIYDASNRATGIPARFSGSGSGTDFTLTISSLEPEDFAVYYCQQRSNWPLTFGGGTKVEIK | 8 | 340 | 930 | 1180 | 3710 | 0.000201 | 54200 | 1.4 nM and 1 nM to 1.5 nM (2×) | IC50 (human OX40 on cells [2]): 1160 pM; EC50 (human OX40 on cells [6]): 3860 pM; EC50 (human OX40 on cells [8]): 4540 pM |
| OX40.16 (antibody, human IgG1, kappa, V domains shown) VH: EVQLVQSGGGLVQPGGSLRLSCAGSGFTFSSYAMYWVRQAPGKGLEWVSAIDTDGGTFYADSVRGRFTISRDNAKNSLYLQMNSLRAEDTAVYFCARLGEGYFFDYWGQGTLVTVSS VL: EIVLTQSPATLSLSPGERATLSCRASQSVSSYLAWYQQKPGQAPRLLIYDASNRATGIPARFSGSGSGTDFTLTISSLEPEDFAVYYCQQRSNWPPTFGGGTKVEIKR | 17 |  |  |  |  |  |  |  | IFNγ EC50, CD4 T cells + CHO-CD3-CD32A (human OX40 on cells [1]): 44 pM; EC50 (cynomolgus OX40 on cells [10]): 60 pM; EC50 (human OX40 on cells [11]): 60 pM; EC50 (NK92 cell-mediated ADCC, calcein release) (human OX40 on cells [12]): 0.004 µg/mL |
| 20C1 (antibody, V domains shown, also called 20C1.F2.D1; 20C1.F2) VH: EAQLVQSGGGLVHPGGSLRLSCADSGFTFSSYAMYWVRQAPGKGLEWVSAIDTDGGTFYADSVRGRFTISRDNAKNSLYLQMNGLRAEDMAVYFCARLGEGYFFDYWGQGTLVTVSS VL: EIVLTQSPATLSLSPGERATLSCRASQSVSSYLAWYQQKPGQAPRLLIYDASNRATGIPARFSGSGSGTDFTLTISSLEPEDFAVYYCQQRSNWPPTFGGGTKVEIK | 8 | 100 | 340 | 170 | 3220 | 0.000209 | 64800 | 68 pM | EC50 (human OX40 on cells [13]): 6130 pM; IL-2 EC50, SEB PBMC, soluble crosslinker (human OX40 on cells [12]): 1300 to 2000 pM; EC50 (human OX40 on cells [14]): 12100 pM |
| OX40.20 (antibody, human IgG1, kappa, V domains shown) VH: EVQLVQSGGGLVQPGGSLRLSCAGSGFTFSSYAMYWVRQAPGKGLEWVSAIDTSGGTFYADSVRGRFTISRDNAKNSLYLQMNSLRAEDTAVYFCARLGEGYFFDYWGQGTLVTVSS VL: EIVLTQSPATLSLSPGERATLSCRASQSVSSYLAWYQQKPGQAPRLLIYDASNRATGIPARFSGSGSGTDFTLTISSLEPEDFAVYYCQQRSNWPPTFGGGTKVEIKR |  |  |  |  |  |  |  |  | binding result (human OX40 on cells [15]): binds |
| 18E9 (antibody, V domains shown, human mAb from hybridoma; also called 18E9.G5.H4; 18E9.G5) VH: EVQLVQSGGGLVHPGGSLRLSCAHSGFTFTSSAMHWVRQAPGKGLEWISAIGTGGDTYYADSVKGRFTISRDNAKNSLYLQINSLRAEDMAVYYCARDFYDILTGIFDYWGQGTLVTVSS VL: DIQMTQSPSSVSASVGDRVTITCRASQGISSWLAWYQHKPGKAPKLLIYAASSLQSGVPSRFSGSGSGTDFTLTISSLQPEDFATYYCQQANSFPSTFGQGTKVEIK | 10 |  | 480 |  | 2040 | 0.000139 | 68300 | 1000 to 1500 pM | EC50 (human OX40 on cells [16]): 220 pM; EC50 (cynomolgus OX40 on cells [17]): 41700 pM; IC50 (read off the curve) (human OX40 on cells [18]): ~1 µg/mL |
